Experiment: label from the status in PepcDB records

Sequence	protein production
MFSKLKKTWYADDFSYFIRNFGVFTLIFSTMTLIILQVMHSSLYTSVDDKLHGLSENPQAVIQLAINRATEEIKDLENARADASKVEIKPNVSSNTEVILFDKDFTQLLSGNRFLGLDKIKLEKKELGHIYQIQVFNSYGQEEIYRVILMETNISSVSTNIKYAAVLINTSQLEQASQKHEQLIVVVMASFWILSLLASLYLARVSVRPLLESMQKQQSFVENASHELRTPLAVLQNRLETLFRKPEATIMDVSESIASSLEEVRNMRFLTTSLLNLARRDDGIKPELAEVPTSFFNTTFTNYEMIASENNRVFRFENRIHRTIVTDQLLLKQLMTILFDNAVKYTEEDGEIDFLISATDRNLYLLVSDNGIGISTEDKKKIFDRFYRVDKARTRQKGGFGLGLSLAKQIVDALKGTVTVKDNKPKGTIFEVKIAIQTPSKKKK	failed
PKPLKNLDGQFCEICGDQIGLTVEGDLFVACNECGFPACRPCYEYERREGTQNCPQCKTRYKRLRGSPRVEGDEDEEDID	not failed
MCFPYNKTVAMLAVLMLSGCEDQAALRNADNPPSPPAARMTEFGPGTEDATITQHPYMDNRHAINEGKRLYSWFNCTGCHAHGGGGMGPPLMDKQWIYGSEPAQIFASIMEGRPNGMPAFHGKIPEQEVWKIVAYVRSLGGLSKDLPAGASSRPLQEQAESDKREVKTP	failed
MQEGQNRKTSSLSILAIAGVEPYQEKPGEEYMNEAQLAHFRRILEAWRNQLRDEVDRTVTHMQDEAANFPDPVDRAAQEEEFSLELRNRDRERKLIKKIEKTLKKVEDEDFGYCESCGVEIGIRRLEARPTADLCIDCKTLAEIREKQMAG	not failed
MMTKAFFNKLPFEVFRRYVRTGKSIPQRSPRTRKSLLVGGTIASAVVLYNFNDTFHDSVKHTALTTKRIAVVTQATTRCFYHYKRALNKSYENKKEREVALNKCHKMCALITLHALRSNGGIYIKLGQHIGAMTYLLPKEWTDTMIPLQDHCPESTYEEIDELFKEDLGTSIEDMFLEFNKTPIGVASLAQVHVAKLKNSDGKGSSVAVKCQHPSLKEFIPLDVMLTRTVFELLDVFFPDYPLTWLGDELQSSIYVELNFTKEAENAEKTRHYFSKFKKQTALKIPKVIESHKRILIAEYVGGKRLDDLEYIDSHGISRSEVSSCLSHIFNNMIFTPNVGIHCDPHGGNLAIRSVKPAKDNGYHNFEIVLFDHGLYRYPSTRTRRLYAKFWLSLLFDKDQTKMKKYAKGFANITDEQFPLLAAAITGRSIDAALNYDISTSRTQEEMDVMANGILEGTLLSDLMSILSRIPRVVLLILKTNDLTRHLDECLQNPLGPERTFLIMTQYCAKTVYDEKVERINSEYARWSIKWMWENLTNWIVYERRINQLYFYDFVLWWKKFIPKTWLSS	failed
MTDDVDDGWAASAAAWIIEQGEDGDYGRRFVLDAPMRARIEGRGFRNALDVGCGEGRFCRIMQRAGIRTTGIDPTEALLARARELDPRGDYRLGRAETMDIDACFDLVVSYLSLIDIPDLGTAIAKMVGALRPGGTLLIANLTSFNTAGQPDGWARDRKGEMRFAIDHYMDERPIWLSWRGIRLQNWHRPLGTYMTLLLDHGLQLRLFVEPEPTSGDPRRNDLHRRVPYFHMMEWQKPA	failed
LDTLRRYHRQTLQDLPMGVCSLAKDQEVLMWNRAIEELTGVGAQKVVGSRLSALPEPWKGLLERFIDAPDEHLHKQRLVYDGHTRWLNLHKAAIEEPLAPGNSGLVLLVEDLTETQLLEDKLVHSERLASIGRLAAGVAHEIGNPITGI	not failed
MPAYDLIIRNGTICDGTGAPRFTGDVAVKNGLIVAVGAVRGDAAEEVDATGRIVAPGWVDVHTHYDGQATWDPEMAPSSWHGVTTVIMGNCGVGFAPAAPDRHDWLIGLMEGVEDIPGTALAEGMAWDWESFPEYLDSLEKMPRAVDVGTHVPHGAVRAYVLGEREKPGAVPTAEDIRKMSEIVEEGVRAGALGFSTSRTVIHKSVDGEVVPGTTATAEELIEIGRAMGRVGHGVFEMASDMKREWDEFGWMGALSRETGLPVTYAALQSIAKEMPLEEQIAEMRHQNAQGANIVAQIALRGNGVIMAWRGTIHPFRFRPSYAAIAELPWEEQLVQLKDPAFRAKVLAEANVYPDSDIVNLFRMIAEGWHNQFIMDEDFDYEPQPEASILLRAKTAGVSPDAFAYDKLMEDEGNGFIYLPILNYADGNLDFLEALQAADDTVNSLSDGGAHCGTICDAASPTFMLQHWVRDRRRGSRISLEHAIKRQCHDTARLYGLDDRGVIAPGYLADINVIDFDRVRLLKPWLAFDLPAGGKRLLQKAEGYDYTIKGGKVTFRNGEWTGATPGNLIRGPQRADLMEAAE	failed
MSEAIRRAEAIDFGPDAQDLLWLSQDPVAVFDAEDRLRAANPAYCATFGCDPAEAPSWRQIMRRNHAMRQGALIVTEDFEGWLAAAAASRGRVPFRAYEAALHDGRWIWITETTAPDGRMLVHATDVTRLRSESLALRSERDAAQRASWTDPLTGVPNRRFVMDHLERWLDQQPRHGTFGTHALAVMDLDRFKQVNDLYGHTAGDAVLVSFCRITTDSIRSVDLFGRFGGEEFVLFMPNCPLETAQARLERLQEALAVAVVSPDLPALRCTFSAGLVAMRRDKDVHHAIRRADRLLYRAKADGRACVRAEI	failed
MKRHYIFASHGSFANGLLNSVELILGKQPDIHTLCAYVEEEVDLTQQVEALVARFPAQDELIVITDIFAGSVNNEFVRFLSRPHFHLLSGLNLPLIIDLLISAAEDNTEKLITEALTNAKESIQYCNQTIASAMTMDKDF	not failed
MSGLVTGREIVQTARDENVPFMGASIAYYAIASIVPLLALLLAALSTFGGTVTLLELLRTVLSENGQVILTELLENTRGHGATGTLSLVLVVWSGSKVFRSLSVAFTEVYGEVTDISLPAQLVRSAVVMGVLLGAVVFLSATSVALTYVKFQVPYPTLVGNVAAFAALGVAFVPIYYVLPPVKTSLTHVAPGALFAAAGWITIQVGFFYYAGTAGRYAAYGYLGALLLFVTALYLAAIVLLLGVVVNATLDW	failed
MQLITFLHEFIKHPKHTGAIAPSSKILAKKMVDVIDFNKAKCIVELGPGTGVFTKEIMKRKKKETIFLLIEINEVFFKELKRKFKDEQNVIVVHGSAENIKKYMGEHNIECIDYVLSGLPFTSLPEEVSKRILNNAMEAIHENGEFITFQYSLVKKGFIQHFFPEITLEKVWLNFPPAYVFSCKKELRRAYA	failed
MDRWNMHKPMLCDSLPTASRTAAAILNLAQREDVTAEALAQLIQTDPALTGRILRFANAPAQGTRRPVASVIDAIDLVGLPAVRQFALSLSLIDAHREGRCEAFDYAAYWQKSLARAVALQSITAQASTVAPKEAFTLGLLADVGRLALATAWPEEYSECLRKADGEALIALERERFATDHDELTRMLLTDWGFPQVFIDALQLSQQDEIRDEGRTGRFARQLALAQHIADHRLAEEPRRAALSPLLRAEARRCGLGDEDLARLLADPPADWLDWTRTIGLEHHHHHH	not failed
MERKLGISLYPEHSTKEKDMAYISAAARHGFSRIFTCLLSVNRPKEEIVAEFKEIINHAKDNNMEVILDVAPAVFDQLGISYSDLSFFAELGADGIRLDVGFDGLTEAKMTNNPYGLKIELNVSNDIAYLENILSHQANKSALIGCHNFYPQKFTGLPYDYFIRCSERFKKHGIRSAAFITSHVANIGPWDINDGLCTLEEHRNLPIEVQAKHLWATGLIDDVIIGNAYASEEELEKLGNLNRYMLQLKVHFVDEATEVEKRATLQELHVRRGDITEYMVRSTEVRKKYKDYDFPVRESVLQERGQVVIGNNSFGKYKGELQIILKEMPIDERKNIVGTIAEEELFLLDYVGAWTQFTCVE	not failed
MTAIDGQGKDQVIFVTKEEHETPSTVKQEEEDTNEDPKGKGLILPTGEINWDCPCLGGMASGVCGEQFKSAFTCFHFSQEEVKGSDCLEQFISMQECFHQHPELFPQDNNDLQTADPDQEHSSSISDFTTNKESDSLPTETDEIPTQLPVVS	not failed
MTSTTTSQQELFRFLEDRFACAQACTECARACALRASLVDPDGTENQELVRRRGIMCAEVCDATCRVLSEQNQVDEAAIRAQLEWCRQVCLESAHVFDDHPGAEESAQACRDCARACGEFLATLR	failed
MKGTNTIYIIISSILLAYIMQIFVLYPFTAVAIGIPLGLLSRKYSAIGGFLIGFLSSLSLYLIYPINAVSKIAEIIGQLIGINPFLVVLLYPLIYGTISLISALLFYYIVRLNK	failed
MGHHHHHHSHMAILIAFMKQRRMGLNDFIQKIANNSYACKHPEVQSILKISQPQEPELMNANPSPPPSPSQQINLGPSSNPHAKPSDFHFL	failed
